Data reported in the supplement of paper PMC12042874.
± gives the uncertainty stated by the source.

test: amyloid nucleation score (Sup35N fusion, yeast selection) (log enrichment); library NNK3; higher = more nucleation; inactive = no reads after selection
Outline: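 Sup35N was fused to peptides of 20 random codons and expressed in psi-negative yeast, which were induced with 100 μM copper sulfate for 24 hours and then grown on medium lacking adenine and uracil for 7 days at 30°C. Plasmid inserts from input and output were sequenced on Illumina. The nucleation score is the DiMSum log enrichment of output over input reads, centred on the mode score of non-aggregating sequences. Sequences with under 100 input reads were left out, and random libraries had three technical output replicates.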

Question: For TFSDRSFRQWVWQELSFCGS, which amyloid nucleation score is on record?
Answer: inactive

Question: With TFSFHLCIQEPTSFDNSLHT as the substance, how does the amyloid nucleation score read?
Answer: 0.164 ± 0.36

Question: Which amyloid nucleation score does the source give for TFSQGSWRTESSLRDGGCLD here?
Answer: inactive

Question: With TFVDPGRV as the substance, how does the amyloid nucleation score read?
Answer: -0.565 ± 1.1

Question: Which amyloid nucleation score does the source give for TFWMPD here?
Answer: -0.55 ± 1.3

Question: With TGCGQFH as the substance, how does the amyloid nucleation score read?
Answer: inactive

Question: With TGFILLTTTVSAINVYQVYR as the substance, how does the amyloid nucleation score read?
Answer: 2.58 ± 0.056

Question: For TGIWSGYYKLFLSVLRGRRV, which amyloid nucleation score is on record?
Answer: inactive

Question: For TGLLLIRIKGH, which amyloid nucleation score is on record?
Answer: inactive

Question: For TGRLVIFTEWRLSAESSRSH, which amyloid nucleation score is on record?
Answer: inactive

Question: With TGRVCFLCYTMSLIWSSPVT as the substance, how does the amyloid nucleation score read?
Answer: 0.07 ± 0.7

Question: With TGVMRYRCLNLFVASICSVP as the substance, how does the amyloid nucleation score read?
Answer: inactive

Question: With TGVSVECLLLWSWSVVWRCM as the substance, how does the amyloid nucleation score read?
Answer: inactive

Question: For THKVWFKCVDAYNLAYVNSI, which amyloid nucleation score is on record?
Answer: inactive

Question: For THLFRYKTASTDGCNESKAV, which amyloid nucleation score is on record?
Answer: inactive

Question: With THSDYSEPRI as the substance, how does the amyloid nucleation score read?
Answer: inactive

Question: Which amyloid nucleation score does the source give for THVPYIT here?
Answer: inactive

Question: Which amyloid nucleation score does the source give for TIGEKHCCWSLCIEETLVCD here?
Answer: inactive

Question: For TIGGNWGHWVVVIFV, which amyloid nucleation score is on record?
Answer: 0.064 ± 0.96

Question: For TIHHRCCSKWKSAWRAYWSI, which amyloid nucleation score is on record?
Answer: inactive

Question: With TIPLSFFDHI as the substance, how does the amyloid nucleation score read?
Answer: inactive

Question: Which amyloid nucleation score does the source give for TISATLVYQ here?
Answer: inactive

Question: Which amyloid nucleation score does the source give for TISDFISEEIRDLQGPVVCI here?
Answer: inactive

Question: Which amyloid nucleation score does the source give for TISISR here?
Answer: inactive

Question: With TITCCVYDN as the substance, how does the amyloid nucleation score read?
Answer: 2.13 ± 0.053

Question: Which amyloid nucleation score does the source give for TITKVNFWEQVRRLLQSGTQ here?
Answer: inactive

Question: For TIVNL, which amyloid nucleation score is on record?
Answer: inactive

Question: For TIVTIVAFFNMERYGHFRGD, which amyloid nucleation score is on record?
Answer: 0.903 ± 0.11

Question: For TIWAGMLASR, which amyloid nucleation score is on record?
Answer: inactive

Question: Which amyloid nucleation score does the source give for TIYSLFSLYLGIWQAPASVY here?
Answer: -0.455 ± 0.53

Question: With TKGFDVPT as the substance, how does the amyloid nucleation score read?
Answer: inactive

Question: Which amyloid nucleation score does the source give for TKKASSYQVDWFSCCWEYGA here?
Answer: 0.708 ± 0.26

Question: For TKKLKIPYFANFYTRFRHFK, which amyloid nucleation score is on record?
Answer: inactive

Question: Which amyloid nucleation score does the source give for TKMDETDLLMFAVLTGGLNG here?
Answer: inactive

Question: Which amyloid nucleation score does the source give for TKRKCYPRLVRPGRLKGPSG here?
Answer: inactive

Question: For TKSPSGTHFLLVRFWSRCGR, which amyloid nucleation score is on record?
Answer: inactive

Question: For TKYAHPPTQDDPLCGIRRSV, which amyloid nucleation score is on record?
Answer: inactive

Question: For TLANQSHLISYYDSDHCRLL, which amyloid nucleation score is on record?
Answer: -0.38 ± 0.78

Question: Which amyloid nucleation score does the source give for TLASQFSFLVS here?
Answer: inactive

Question: For TLCNFKCVYTGSLKIFHRYM, which amyloid nucleation score is on record?
Answer: 1.91 ± 0.094

Question: For TLDILLE, which amyloid nucleation score is on record?
Answer: inactive

Question: With TLEFHPRAINYDHRMNMFSR as the substance, how does the amyloid nucleation score read?
Answer: inactive

Question: With TLGLRADRYKLLYFFEGFLI as the substance, how does the amyloid nucleation score read?
Answer: inactive

Question: For TLGPKEGWLVSNWMWSRVII, which amyloid nucleation score is on record?
Answer: inactive

Question: With TLLHLLKLSGLVSKCSTMVL as the substance, how does the amyloid nucleation score read?
Answer: inactive

Question: With TLLMMYKVGYLAMAIRMGGL as the substance, how does the amyloid nucleation score read?
Answer: inactive

Question: Which amyloid nucleation score does the source give for TLNIDGFIVFRTEVKGKLSY here?
Answer: inactive

Question: Which amyloid nucleation score does the source give for TLNRLDSHGSFFRMNVREGV here?
Answer: inactive

Question: For TLNSDVSGSNIWASSYG, which amyloid nucleation score is on record?
Answer: inactive

Question: With TLNVFVNN as the substance, how does the amyloid nucleation score read?
Answer: 2.26 ± 0.056

Question: For TLSLPLMTRWSLYLCSDWAS, which amyloid nucleation score is on record?
Answer: inactive

Question: With TLWLRVLSFWTVCFLVHFTM as the substance, how does the amyloid nucleation score read?
Answer: inactive

Question: For TLWMQILDAKYRSCSLRLRR, which amyloid nucleation score is on record?
Answer: inactive

Question: With TMFIVNTNIWSGVCISDNTW as the substance, how does the amyloid nucleation score read?
Answer: 1.78 ± 0.067

Question: With TMHQLHKFFLHMKGASIDSV as the substance, how does the amyloid nucleation score read?
Answer: inactive

Question: For TMKGTSKVSLLVSSGASRMG, which amyloid nucleation score is on record?
Answer: inactive

Question: For TMLYGSIRQSGDMQMSTLSV, which amyloid nucleation score is on record?
Answer: inactive

Question: For TMRNKMAY, which amyloid nucleation score is on record?
Answer: inactive

Question: With TMVLIICDN as the substance, how does the amyloid nucleation score read?
Answer: inactive

Question: Which amyloid nucleation score does the source give for TMVQECHYARSVSLYYNANA here?
Answer: inactive

Question: Which amyloid nucleation score does the source give for TMWTTGTTPPRMISHT here?
Answer: inactive

Question: For TNAFRLVLTNMKI, which amyloid nucleation score is on record?
Answer: inactive

Question: Which amyloid nucleation score does the source give for TNCGNQTILFIIYVTILEVC here?
Answer: 0.397 ± 0.14

Question: For TNFPLALSSRIPSASQISMQ, which amyloid nucleation score is on record?
Answer: -0.547 ± 1.5

Question: Which amyloid nucleation score does the source give for TNFSRYEDFVLLFCPILYAF here?
Answer: inactive

Question: Which amyloid nucleation score does the source give for TNLMLSLE here?
Answer: inactive

Question: Which amyloid nucleation score does the source give for TNNCCNLLCMIQNPESCSFA here?
Answer: 3.12 ± 0.065

Question: With TNVRALA as the substance, how does the amyloid nucleation score read?
Answer: inactive

Question: Which amyloid nucleation score does the source give for TNWDKNYYSCYIIKGLRWER here?
Answer: inactive

Question: Which amyloid nucleation score does the source give for TPAMYFPIYFSAHGHLYLFY here?
Answer: inactive

Question: With TPCAKTIELHWCVVERRSSY as the substance, how does the amyloid nucleation score read?
Answer: inactive

Question: For TPIHRL, which amyloid nucleation score is on record?
Answer: 0.451 ± 0.16

Question: With TPLSHNVRIMKKLGCDRRD as the substance, how does the amyloid nucleation score read?
Answer: inactive

Question: For TPPVWTSPSSRLASCFKGLW, which amyloid nucleation score is on record?
Answer: 1.31 ± 0.15

Question: With TQLIIAGFVPNYVVLPWSAH as the substance, how does the amyloid nucleation score read?
Answer: 1.38 ± 0.11

Question: With TQLRTVCSTW as the substance, how does the amyloid nucleation score read?
Answer: inactive

Question: With TQSWLCRV as the substance, how does the amyloid nucleation score read?
Answer: inactive

Question: For TRAMHSFWFESDCKY, which amyloid nucleation score is on record?
Answer: inactive

Question: With TRDQHIIYYFVEPFKIITGM as the substance, how does the amyloid nucleation score read?
Answer: 1.5 ± 0.099

Question: For TRDRCLRFKLVPVYFVWTCG, which amyloid nucleation score is on record?
Answer: inactive

Question: For TRGSPRGRNEKSGYTSVMRG, which amyloid nucleation score is on record?
Answer: inactive

Question: With TRHSHLCS as the substance, how does the amyloid nucleation score read?
Answer: inactive

Question: For TRLFRDNFHFLGRSLSATYV, which amyloid nucleation score is on record?
Answer: inactive

Question: With TRMGFYKAWYTAYVWRHALL as the substance, how does the amyloid nucleation score read?
Answer: inactive

Question: Which amyloid nucleation score does the source give for TRNMRWNFVDLARNRASLNS here?
Answer: inactive

Question: For TRPESETHGMMR, which amyloid nucleation score is on record?
Answer: inactive

Question: Which amyloid nucleation score does the source give for TRPLSDPVLINVYWRETSYP here?
Answer: -0.33 ± 0.47

Question: For TRRQTGYILSTLWLAHCHFR, which amyloid nucleation score is on record?
Answer: inactive

Question: For TRSCNLNTFKVDASGPPWHG, which amyloid nucleation score is on record?
Answer: inactive

Question: For TRSFVRSGAWNSLEGW, which amyloid nucleation score is on record?
Answer: 1.16 ± 0.16

Question: With TRTCRIWIKSVMGRRWVIRM as the substance, how does the amyloid nucleation score read?
Answer: inactive

Question: Which amyloid nucleation score does the source give for TSEVVQ here?
Answer: inactive

Question: Which amyloid nucleation score does the source give for TSHNGPYLSMFFRVANT here?
Answer: inactive

Question: For TSIIYMFNSFL, which amyloid nucleation score is on record?
Answer: 2.9 ± 0.06

Question: For TSKFPSDLWSNPPEMYALFI, which amyloid nucleation score is on record?
Answer: inactive

Question: With TSKRDYDRCRFL as the substance, how does the amyloid nucleation score read?
Answer: inactive

Question: For TSLDCYLMRLFLGWEALKVW, which amyloid nucleation score is on record?
Answer: inactive

Question: Which amyloid nucleation score does the source give for TSSFVKSFRCYSAIG here?
Answer: inactive

Question: Which amyloid nucleation score does the source give for TSTDVQVGYVNMLLLRVLFF here?
Answer: inactive

Question: With TSVRELNLMPCDENSTICDI as the substance, how does the amyloid nucleation score read?
Answer: inactive

Question: Which amyloid nucleation score does the source give for TSVSPRHLVSTSTMICSFAH here?
Answer: inactive

Question: For TSWCNSKPCEILYVGSMAKE, which amyloid nucleation score is on record?
Answer: inactive

Question: With TSYDFTMARYCSNDYVFIWH as the substance, how does the amyloid nucleation score read?
Answer: 2.44 ± 0.061

Question: For TSYKKRFCGQYLMLNVNMSW, which amyloid nucleation score is on record?
Answer: inactive

Question: With TSYYSMVEHSLKYQDRLMSS as the substance, how does the amyloid nucleation score read?
Answer: inactive

Question: Which amyloid nucleation score does the source give for TTASFFLNKISLKNHRASCT here?
Answer: inactive

Question: Which amyloid nucleation score does the source give for TTGLISSNGVTG here?
Answer: inactive

Question: For TTGMRYCLVFDIGFSFWLFM, which amyloid nucleation score is on record?
Answer: inactive

Question: For TTHNAFMSNNNIR, which amyloid nucleation score is on record?
Answer: 0.711 ± 0.13

Question: With TTLLFMKH as the substance, how does the amyloid nucleation score read?
Answer: inactive

Question: With TTMNVTFVPANLWCKSSHEA as the substance, how does the amyloid nucleation score read?
Answer: inactive

Question: Which amyloid nucleation score does the source give for TTNDWHTFSGMVIKGWHIGK here?
Answer: inactive

Question: With TTQILYTFY as the substance, how does the amyloid nucleation score read?
Answer: 1.56 ± 0.12

Question: For TTSEAIMLGCSISTYNQSGN, which amyloid nucleation score is on record?
Answer: inactive

Question: For TTTAYWNESDTLRCMLV, which amyloid nucleation score is on record?
Answer: -0.757 ± 1.4

Question: Which amyloid nucleation score does the source give for TVCLVAITKAPRRCNSQHWD here?
Answer: -0.917 ± 1.9

Question: For TVCYYWRN, which amyloid nucleation score is on record?
Answer: 0.911 ± 0.2

Question: For TVERILC, which amyloid nucleation score is on record?
Answer: inactive
